The values below come from the supplement of paper PMC9170038.

The subject of this data set is MS2 coat protein. Briefly: apparent KD of MS2 coat protein; designed switch direction (-1 OFF switch, 1 ON switch): 1; higher = weaker reporter binding. In short, it runs like this: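 Normalised cluster fluorescence was curve-fitted, and each design's median over clusters is its apparent KD. Before this, SNAP-549-labelled MS2 coat protein was titrated from 0.7 or 1.5 nM, doubling to 3 µM, over RNA switches transcribed on Illumina chips by stalled E. coli RNA polymerase. Titrations had no input, 200 uM small-molecule ligand, or an oligonucleotide input, and steps lasted 0.8–1.5 h (lowest) to 10–20 min (highest).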

Setting [1] is: input ligand: microRNA oligo, concentration not stated.
Setting [2] is: Eterna round: R95, input ligand: FMN 200 uM.
[3] abbreviates: Eterna round: R95, input ligand: microRNA oligo, concentration not stated.
[4] abbreviates: Eterna round: R95, input ligand: none.

As to “UACAAUCUAUCUGAGGAUAUCAUGAUUAUAACAUGAGGAUCACCCAUGUGCAGGAAAACUGCAUAUGAGAAGGCAGAUAGAUUGU [salish99_ss2_r3_069] (Eterna round: R96, puzzle: Same State 2)”, the “apparent KD of MS2 coat protein” value reads like this: (input ligand: FMN 200 uM) 228 nM; under setting [1], 116 nM; (input ligand: none) 232 nM.

Turning to “UACAAUCUAUCUGAGGAUAUCAUGAUUAUAACAUGAGGAUCACCCAUGUGCAGGAAAACUGCAUAUGAGAAGGCAGAUAGAUUGU [salish99_ss2_r3_069] (puzzle: Same State 2)”, the “apparent KD of MS2 coat protein” value under setting [2] was 228 nM, the “apparent KD of MS2 coat protein” value under setting [3] was determined as 1630 nM and the “apparent KD of MS2 coat protein” value under setting [4] is 110 nM.

For the sequence “UACAUACGCGGAGGAUAUGGGCGAGGCGCAGAGGUCUGCACCAAAACAUGAGGAUCACCCAUGUCCCAGAAGGCCGCACAAACU [Onageenza] (Eterna round: R96, puzzle: Same State NG 2)”, the “apparent KD of MS2 coat protein” value (input ligand: FMN 200 uM) came out at 19.9 nM, the “apparent KD of MS2 coat protein” value under setting [1] was 48.8 nM and the “apparent KD of MS2 coat protein” value (input ligand: none) was found to be 71.9 nM.

As for “UACAUACGCGGAGGAUAUGGGCGAGGCGCGGAGGUCCGCGCCAAAACAUGAGGAUCACCCAUGUCCCAGAAGGCCGCACAAACU [Atusso] (Eterna round: R96, puzzle: Same State NG 2)”, the “apparent KD of MS2 coat protein” value by setting is: (input ligand: FMN 200 uM) 15.1 nM; under setting [1], 66.4 nM; (input ligand: none) 86.6 nM.

On to “UAGAAACAUGAGGAUCACCCAUGUGUCAAAGACAUAGGAUAUCACGACUGGAGUCAAUCGUGAGAAGGGUGGUAAA [Usra] (puzzle: Same State 1)”, for which the “apparent KD of MS2 coat protein” value runs as follows: under setting [2], 92.3 nM; under setting [3], 19.4 nM; under setting [4], 38.7 nM.

Regarding “UAGAAACAUGAGGAUCACCCAUGUGUCAAAGACAUAGGAUAUCACGGCUAAAAUCAGCCGUGAGAAGGGUGGUAAA [Aisbira] (puzzle: Same State 1)”, the “apparent KD of MS2 coat protein” value is, setting by setting: under setting [2], 57.1 nM; under setting [3], 61.1 nM; under setting [4], 56.2 nM.

Take “UAGAAACAUGAGGAUCACCCAUGUGUCAGAGACAUAGGAUAUCGUAACCAGCGCCGGAUACGAGAAGGGUGGUAAA [Enraxe] (puzzle: Same State 1)”: the “apparent KD of MS2 coat protein” value was found to be 156 nM under setting [2], 38.5 nM under setting [3] and 51.3 nM under setting [4].

For “UAGAACAAGCUUUUUGCCCGUCUUAUAUAACAUGAGGAUCACCCAUGUAAGGUGAAAGUUAGAGAGUGGAGGAAGAA [JR_SHM208A_Sub053] (puzzle: Sensor for hsa-mir-208a)”, the “apparent KD of MS2 coat protein” value is, setting by setting: under setting [2], 95.3 nM; under setting [3], 272 nM; under setting [4], 123 nM.

Regarding “UAGAAUCUAUCUCAGGAUAUCAUGUCAAAGACAUGAGGAUCACCCAUGUACCAGGAAACUGGUUAUGAGAAGGGAGAUAGAUUCU [Mat - Same State 2 - Mod - D33] (puzzle: Same State 2)”, the “apparent KD of MS2 coat protein” value is, setting by setting: under setting [2], 160 nM; under setting [3], 158 nM; under setting [4], 281 nM.

Take “UAGAGAGGAAGCGAGGAUAUCGUGUGAGGUACAUGAGGAUCACCCAUGUUUGAUGUUGAGAGAGGCGAGAAGGCGCAGGAGAAAA [JR_SS2_Sub086] (puzzle: Same State 2)”: the “apparent KD of MS2 coat protein” value amounted to 30.8 nM under setting [2], 24.9 nM under setting [3] and 38.7 nM under setting [4].

With “UAGAGAGGAAGCGAGGAUAUCGUGUUAGGUACAUGAGGAUCACCCAUGUUGUAGGUAGAGGUAGGCGAGAAGGCGCAGGAGAGGU [JR_SS2_Sub094] (puzzle: Same State 2)”, the “apparent KD of MS2 coat protein” value stood at 33.4 nM under setting [2], 38.8 nM under setting [3] and 41.4 nM under setting [4].

Regarding “UAGCUCGUGUGAGGAUAUGCCGCCGUUUCGGCUGCAGAAGGUGCUACGUUACAUGAGGAUCACCCAUGUCUCUGUUGUUUCGUU [salish99_SSNG1_r04_956] (Eterna round: R96, puzzle: Same State NG 1)”, the “apparent KD of MS2 coat protein” value is, setting by setting: (input ligand: FMN 200 uM) 21.5 nM; under setting [1], 17.5 nM; (input ligand: none) 23.1 nM.

Take “UAGUGCAUUAGAGGAUAUUCUUACGAAAACGUAAAGACAUGAGGAUCACCCAUGUUGUCACAUGGGAAGAAGGCUGAUGUGCUA [Omei SS(NG)2 Bv3] (Eterna round: R96, puzzle: Same State NG 2)”: the “apparent KD of MS2 coat protein” value (input ligand: FMN 200 uM) came to 26.3 nM, the “apparent KD of MS2 coat protein” value under setting [1] was found to be 117 nM and the “apparent KD of MS2 coat protein” value (input ligand: none) was determined as 148 nM.

For the sequence “UAUCAUUACACGAAGGAUAUCGAUAAUUGAACAUGAGGAUCACCCAUGUGAUAUAUUUUACAGUUCGAGAAGGUCGAGGGUGAAG [JR_SS002_Sub705] (Eterna round: R96, puzzle: Same State 2)”, the “apparent KD of MS2 coat protein” value under setting [1] came out at 28.5 nM.

“UAUCCAUAGAUAGGAUAUUAGUGAACAUGAGGAUCACCCAUGUUUGGCUUGGUUUUAAGCUAAUCUGAGAAGGAUCUUGAUGAA [SameState NG2 #7] (Eterna round: R96, puzzle: Same State NG 2)”: the “apparent KD of MS2 coat protein” value by setting is: (input ligand: FMN 200 uM) 150 nM; under setting [1], 98.5 nM; (input ligand: none) 164 nM.

“UAUGAACAUGAGGAUCACCCAUGUGGAAAGGACACAGGAUAUCACCUCGGACGUGCGAUGUGAGAAGGGUGAUGGU [Anrelari] (puzzle: Same State 1)”: the “apparent KD of MS2 coat protein” value amounted to 260 nM under setting [2], 103 nM under setting [3] and 125 nM under setting [4].

Turning to “UAUGCACAUGAGGAUCACCCAUGUGAUAGAAUCACAGGAUAUCACCUCGGACGUGCGAUGUGAGAAGGGUGGUCGU [Same State 1 - Mod of Vinnie Anrelari v.4] (puzzle: Same State 1)”, the “apparent KD of MS2 coat protein” value runs as follows: under setting [2], 150 nM; under setting [3], 63.1 nM; under setting [4], 124 nM.

For the sequence “UAUGCACAUGAGGAUCACCCAUGUGGUAAGACCACAGGAUAUCACCUCGGACGUGCGAUGUGAGAAGGGUGAUGGU [Same State 1 - Mod of Vinnie Anrelari v.3] (puzzle: Same State 1)”, the “apparent KD of MS2 coat protein” value was found to be 491 nM under setting [2], 289 nM under setting [3] and 379 nM under setting [4].

Take “UAUUUAAUCAUAGGAUAUAGUGUGAAAUUUGGACUAGAAGGAUGUAACAUGAGGAUCACCCAUGUGGUAAGUGGGACACAGUGU [JR_SSNG1_Sub095] (Eterna round: R96, puzzle: Same State NG 1)”: the “apparent KD of MS2 coat protein” value (input ligand: FMN 200 uM) came out at 164 nM, the “apparent KD of MS2 coat protein” value under setting [1] was 69.4 nM and the “apparent KD of MS2 coat protein” value (input ligand: none) was 141 nM.

Regarding “UCAAGCUUUUUGCUCGUUUUAUGUGUUGAACAUGAGGAUCACCCAUGUAUUGUACGAUCCAGUUAGAUGGUAAUUUG [JR_SHM208A_Sub041] (puzzle: Sensor for hsa-mir-208a)”, the “apparent KD of MS2 coat protein” value is, setting by setting: under setting [2], 62.5 nM; under setting [3], 140 nM; under setting [4], 79.8 nM.

As to “UCAAUCAUGUAAGGAUAUGCAGCCGAAACGGCUGCAGAAGGUACUAUAAUUACAUGAGGAUCACCCAUGUUAUAAAAUUUAAAU [Mat - Same State NG 1 - JL mod - D68] (Eterna round: R96, puzzle: Same State NG 1)”, the “apparent KD of MS2 coat protein” value reads like this: (input ligand: FMN 200 uM) 35.5 nM; under setting [1], 46 nM; (input ligand: none) 123 nM.

Regarding “UCAAUCAUGUAAGGAUAUGCAGCCGUUUCGGCUGCAGAAGGUACUAUAAUUACAUGAGGAUCACCCAUGUUAUAAAAUUUAUAU [JL SSNG1 1.26] (Eterna round: R96, puzzle: Same State NG 1)”, the “apparent KD of MS2 coat protein” value is, setting by setting: (input ligand: FMN 200 uM) 33.6 nM; under setting [1], 101 nM; (input ligand: none) 217 nM.

For “UCAGAGGCGCUAGGAUAUCUCUCCGAGAAGCAGAGAGAAGGAGUGCGGAACCCAAGACCUACAUGAGGAUCACCCAUGUCUCAA [Eternabot solution 27] (Eterna round: R96, puzzle: Same State NG 1)”, the “apparent KD of MS2 coat protein” value (input ligand: FMN 200 uM) was determined as 22.8 nM, the “apparent KD of MS2 coat protein” value under setting [1] is 22.9 nM and the “apparent KD of MS2 coat protein” value (input ligand: none) turned out to be 38.7 nM.

Consider “UCCUUGUGGGUAGGAUAUUUAGGAUAUGCGGAAGACUAAGUCUGUAGGUCACCUAACGCAGAAGGAGAGAAGGACCCUUCAGCA [pwkr ssNG2 2FMN + F9.32] (Eterna round: R96, puzzle: Same State NG 2)”, for which the “apparent KD of MS2 coat protein” value reads like this: (input ligand: FMN 200 uM) 284 nM; under setting [1], 87.9 nM; (input ligand: none) 309 nM.

In the case of “UCGGGCGUACUUGCUGACAUGAGGAUCACCCAUGUGCUUGGGAAGGAUAUGGUUCCGUUUCGGUUCCAGAAGGUCCUGGCUGCU [salish99_SSNG3_r04_316] (Eterna round: R96, puzzle: Same State NG 3)”, the “apparent KD of MS2 coat protein” value amounted to 116 nM (input ligand: FMN 200 uM), 47 nM under setting [1] and 79.8 nM (input ligand: none).

As to “UCGGGCUCUGCUCGUCUUGAGUUGCUCCCACAUGAGGAUCACCCAUGUAGUGUGCCGAUCGGCGCGCGGGUGACUUU [Atresoso] (puzzle: Sensor for hsa-mir-208a)”, the “apparent KD of MS2 coat protein” value is 456 nM under setting [2], 151 nM under setting [3] and 451 nM under setting [4].

For “UCUCGGGUCGUAGGAUAUGUAGGAUAUGUACAUGAGGAUCACCCAUGUCUACCAGAGACAGAAGGACAGAAGGACGAGCCACUC [pwkr ssNG2 2FMN 1F5s.5] (Eterna round: R96, puzzle: Same State NG 2)”, the “apparent KD of MS2 coat protein” value (input ligand: FMN 200 uM) stood at 25.2 nM, the “apparent KD of MS2 coat protein” value under setting [1] was found to be 42.2 nM and the “apparent KD of MS2 coat protein” value (input ligand: none) came out at 55.5 nM.

For the sequence “UCUCGGGUCGUAGGAUAUGUAGGAUAUGUACAUGAGGAUCACCCAUGUCUACCAGAGACAGAAGGACAGAAGGACGAGCCGAUC [pwkr ssNG2 2FMN 1F5s.6] (Eterna round: R96, puzzle: Same State NG 2)”, the “apparent KD of MS2 coat protein” value is 20.9 nM (input ligand: FMN 200 uM), 25.8 nM under setting [1] and 43.7 nM (input ligand: none).
